Data reported in the nanobody polyreactivity screen of Harvey et al. (2022).

Test: yeast display, Sf9 membrane polyspecificity reagent, FACS + sequencing; frameworks hold sequencing errors
Procedure, shortened: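 Polyreactivity labels are assigned by the sorting gate from which each nanobody was recovered. The gates were low and high (top ~1%), set on anti-HA fluorescence for expression and streptavidin fluorescence for reagent binding. Before sorting, galactose-induced (36–48 hours) yeast display cells were stained for 1 hour at 4 °C with 10% biotinylated, detergent-solubilized Sf9 membrane reagent.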

Sequence | polyreactivity (PSR sort gate)
QVQLVESGGGLVQAGGSLRLSCAASGIIFVDYAMGWYRQAPGKEREFVAAITWSGGSTRYADSVKGRFTISRDNAKNTVYLQMNSLKPEDTAVYYCAALGYNVSSRGYYYWGQGTQVTVSS | low polyreactivity
QVQLVESVGGLVQAGGSLRLSCAASGFTFRYYAMGSYRQAPGKERELVAAISRTGRTYYADSVKGRFTISRDNAKNTVYLQMNSLKPEDTAVYYCAADPPGYVFGKRYYWGHGTQVTVSS | high polyreactivity
QVQLVESGGGLVQAGGSLRLSCAASGSIFDLNAMGWYRQAPGKERELVAAISSGGGTYYADSVKGRFTISRDNAKNTVYLKMNSLKPEDTAVYYCKRVTRWTYNYWGQGTQVSVSS | high polyreactivity
QVQLVESGGGLVQAGGSLRLSCAASGIIFRDYAMGWYRQAPGKERELVAAINLDGTSTYYADSVKGRFTISRDNAKKTVYLQMNSLKPEDTAVYYCAAEYDNADYINYFLDMYYWGQGTQVTVSS | low polyreactivity
QVQLVESGGGLVQAGGSLRLSCAASGRTFYANTMGWYRQAPGKERELVAGITSGGSTSYADSVKGRFTISRDNAKNTVYLQMNSLKPVDTAVYYCAAQFYRYTATGYYADGYWGQGTQVTVSS | low polyreactivity
QVQLVESGGGLVQAGGSLRLSCAASGRTFGYNTMGWYRQAPGKERELVATIRTNGVSTYYADSVKGRFTISRDNAKNTVYLQMNSLKPEDTAVYYCNAPRTRKQKTIYVNAPGNYWGQGTQVTVSS | low polyreactivity
HVKLVESGGGLVQAGGSLRLSCAASGSIFEPYVMGWYRQAPGKERELVAAIRQTRGSTYYADSVKGRFTISRDNAKNTVYLQMNSLKPEDTAVYYCNAEQNPSGLYDYRGVEGEMGYWGQGTQVTVSS | low polyreactivity
QVQLVESGGGLVQAGGSLRLSCAASGIIFAGNAMGWYRQAPGKERELVAAISSNGGSTYYADSVKGRFTISRDNAKNYVYLQMNSLKPEDTAVYYCAADRVYWGRVQGYYWGQGTQVTVSS | low polyreactivity
QVQLVESGGGLVQAGGSLRLSCAASGRIFANNAMGWYRQAPGKEREFVAAINYSGTSTYYADSVKGRFTISRDNAKNTVYLQMNSLKPEDTAVYYCAADLPYYPYLYDYWGQGTQVTVSS | low polyreactivity
QVQLVESGGGLVQAGGSLRLSCAASGSTFKSYTMGWYRQAPGKERELVAAITSSGRTNYADSVKGRFTISRDNAKNTVYLQMNSLKPEDTAVYYCAARWYYYPLLYDYWGQGTQVTVSS | low polyreactivity
QVQLVESGGGLVQAGGSLRLSCAASGRIFYGNAMGWYRQAPGKERELVAAITRGVSTYYADSVKGRFTISRDNAKNTVYLQMNSLKPEDTAVYYCAKDRRVRMDSWGQGTQVTVSS | low polyreactivity
QDQLEDSGGGLVQAGGSLRLSCAASGRTFTLYAMGWSRQAPGKERELVASISRSGGSTYYADSVKGRFTISRDNAKNTVYLQMNSVKPEDTAVDYCAARRFAWLFIYDYWGQGTQVTVSS | high polyreactivity
QVQLHESGGGLLQAGGGLRLSCAASGSISSTGFMCWYRQAPGKEREPVAAIAPGTTTYYADSVKGRFTISRDNAKNSVYLQKNSLRPEDTAVYYCAVFTDNRVAFLYWGQGTQVTVSS | low polyreactivity
QVQLVESGGGLVQAGGSLRLSCAASGLTFVYYAMGWYRQAPGKERELVAVISSSGGSTYYADSVKGRFTISRDNAKNTVYLQMNSLKPEDTAVYYCAAPRQVYYQTDNDYWGQGTQVTVSS | high polyreactivity
QVQLVESWGGLVQAGGSLRLSCAASGIIFAAYAMGWYRQAPGKERELVATITSSGGSTFYADSVKGRFTISRDNAKNTVYLQMNSLKPEDTAVYYCAADTWGLWFWGPLFSKYGYWGQGTQVTVSS | low polyreactivity
QVQLVESGGGLVQAGGSLRLSCAASGSIFVNYAMGWYRQAPGKERELVAAISGRGGSTYYADSVKGRFTISRDNAKNTVYLQMNSLKPEDTAVFYCARYGYYGHDWGQGTQVTVSS | high polyreactivity
QVQLVESGGGLVQAGGSLRLSCAASGITFKYYAMGWYRQAPGKERELVAAISRGGGSTYYADSVKGRFTISRDNAKNTVYLQMNSLKPEDTAVYYCNAVFYSFIQSDYWGQGTQVTVSS | high polyreactivity
QLQLVESGGGLVQAGGSLRRSCAPSGRILWVNAMGWSRQAPGKERELVAAISLSGGRTYYADSVKGRFTISRDNAKNTVYLQMNSLKPEDTAVYYCAARTVNYYYTTGDYWGQGTQVTVSS | low polyreactivity
QVQLVESVGGVVQAGGSLRLSCAASGFTFKYYDMGWYRQAPGKERELVAAISRRGGSTSYADSVKGRFTISRDNAKNTVYLQMNSLKPEDTAVYYCAADSSFERSSDYWGHGTQVTVSS | high polyreactivity
QVQLVESGGGLVQAGGSLRLSCAASGSTFRFNAMGWYRQAPGKERELVAVIRWRGGTTYYADSVKGRFTISRDNAKNTVYLQMKSLKPEDTAVYYCNADYWGQGTQVTVSS | high polyreactivity
QVQLVESGGGLVQAGGSLRLSCAASGRIFHSKAMGWYRQAPGKERELVAAITWSTGRTYYADSVKGRFTISRDNAKNTVYLQMNSLKPEDTAVYYCFRFSYYTGDYWGQGTQVTVSS | high polyreactivity
QVQHVESGGGLVQAGGSLRLSCAASGFIFRNYAMGWYRQAPGKERELVAAISSRGGSTYYADSVKGRFTISRDNAKNTVYLQMNRLKPEVTAVYYCARRYFYTYGYWGQGSQVTVSS | high polyreactivity
